Patent publication US20200123236A1

What was measured:
[1] = biological target: BG505 SOSIP.664 Env trimer (HIV-1); experiment: negative stain EM of the complex, 6:1 molar ratio
[2] = biological target: HIV-1 Env of virus strain 6471.V1.C16 (HIV-1); experiment: cell-based or functional assay

Row | Binder | Bi-ScFvs bound per Env trimer (Bi-ScFv per Env trimer) [1] | IC50, neutralization of Env-pseudovirus on TZM-bl cells [2]
1 | Bi-ScFv dVRC01-5X-PGT121 (bispecific antibody) scFv: SLTQSPGTLSLSPGETAIISCRTSQYGSLAWYQQRPGQAPRLVIYSGSTRAAGIPDRFSGSRWGPDYNLTISNLESGDFGVYYCQQYEFFGQGTKVQVDIKGGGGSGGGGSGGGGSQVQLVQSGGQMKKPGESMRISCRASGYEFIDCTLNWIRLAPGKRPEWMGWLKPRGGAVNYARPLQGRVTMTRDVYSDTAFLELRSLTVDDTAVYFCTRGKNCDYNWDFEHWGRGTPVIVSSGGGGSGGGGSGGGGSGGGGSGGGGSSDISVAPGETARISCGEKSLGSRAVQWYQHRAGQAPSLIIYNNQDRPSGIPERFSGSPDSPFGTTATLTITSVEAGDEADYYCHIWDSRVPTKWVFGGGTTLTVLGGGGSGGGGSGGGGSQMQLQESGPGLVKPSETLSLTCSVSGASISDSYWSWIRRSPGKGLEWIGYVHKSGDTNYSPSLKSRVNLSLDTSKNQVSLSLVAATAADSGKYYCARTLHGRRIYGIVAFNEWFTYFYMDVWGNGTQVTVSSGSGHHHHHH | 3 | 
2 | 10E8 IgG (antibody, V domains shown) VH: EVQLVESGGGLVKPGGSLRLSCSASGFDFDNAWMTWVRQPPGKGLEWVGRITGPGEGWSVDYAAPVEGRFTISRLNSINFLYLEMNNLRMEDSGLYFCARTGKYYDFWSGYPPGEEYFQDWGRGTLVTVSS VL: SYELTQETGVSVALGRTVTITCRGDSLRSHYASWYQKKPGQAPILLFYGKNNRPSGVPDRFSGSASGNRASLTISGAQAEDDAEYYCSSRDKSGSRLSVFGGGTKLTVL |  | 4.98 µg/mL
